Measured values reported in the Human Domainome abundance scans (Beltran et al. 2025).
± gives the uncertainty stated by the source.

B1: Ubiquitin-protein ligase residues 30 to 86; numbered along this chain, Q05086 (parent)
chain: KHLIERYYHQLTEGCGNEACTNEFCASCPTFLRMDNNAAAIKALELYKINAKLCDPH

Variants of: B1
Assay: abundance fitness (aPCA) (normalised: wild type 0, dead -1); higher = more abundant; growth selection in yeast, the domain comes from the species named
Conditions: Homo sapiens

Variant | abundance fitness
KHLIERYYHQLTEGCGNEACTNEFCASCPTFLRMDNNAAAIKALELYKINAKLCDPS [H57S] | -0.268 ± 0.14
KHLIERYYHQLTEGCGNEACTNEFCASCPTFLRMDNNAAAIKALELYKINAKLCDPP [H57P] | -0.006 ± 0.1
KHLIERYYHQLTEGCGNEACTNEFCASCPTFLRMDNNAAAIKALELYKINAKLCDPR [H57R] | -0.052 ± 0.11
KHLIERYYHQLTEGCGNEACTNEFCASCPTFLRMDNNAAAIKALELYKINAKLCDPV [H57V] | 0.173 ± 0.19
KHLIERYYHQLTEGCGNEACTNEFCASCPTFLRMDNNAAAIKALELYKINAKLCDPN [H57N] | 0.104 ± 0.16
KHLIERYYHQLTEGCGNEACTNEFCASCPTFLRMDNNAAAIKALELYKINAKLCDPC [H57C] | 0.175 ± 0.2
KHLIERYYHQLTEGCGNEACTNEFCASCPTFLRMDNNAAAIKALELYKINAKLCDPY [H57Y] | 0.017 ± 0.074
KHLIERYYHQLTEGCGNEACTNEFCASCPTFLRMDNNAAAIKALELYKINAKLCDPF [H57F] | 0.076 ± 0.26
KHLIERYYHQLTEGCGNEACTNEFCASCPTFLRMDNNAAAIKALELYKINAKLCDPQ [H57Q] | 0.009 ± 0.22
KHLIERYYHQLTEGCGNEACTNEFCASCPTFLRMDNNAAAIKALELYKINAKLCDPG [H57G] | 0.013 ± 0.16
KHLIERYYHQLTEGCGNEACTNEFCASCPTFLRMDNNAAAIKALELYKINAKLCDPK [H57K] | -0.092 ± 0.43
KHLIERYYHQLTEGCGNEACTNEFCASCPTFLRMDNNAAAIKALELYKINAKLCDPW [H57W] | -0.348 ± 0.23
KHLIERYYHQLTEGCGNEACTNEFCASCPTFLRMDNNAAAIKALELYKINAKLCDPA [H57A] | -0.022 ± 0.15
KHLIERYYHQLTEGCGNEACTNEFCASCPTFLRMDNNAAAIKALELYKINAKLCDPT [H57T] | 0.109 ± 0.16
KHLIERYYHQLTEGCGNEACTNEFCASCPTFLRMDNNAAAIKALELYKINAKLCDPE [H57E] | -0.505 ± 0.35
KHLIERYYHQLTEGCGNEACTNEFCASCPTFLRMDNNAAAIKALELYKINAKLCDPD [H57D] | -0.051 ± 0.13
KHLIERYYHQLTEGCGNEACTNEFCASCPTFLRMDNNAAAIKALELYKINAKLCDPI [H57I] | -0.408 ± 0.43
KHLIERYYHQLTEGCGNEACTNEFCASCPTFLRMDNNAAAIKALELYKINAKLCHPH [D55H] | -0.227 ± 0.11
KHLIERYYHQLTEGCGNEACTNEFCASCPTFLRMDNNAAAIKALELYKINAKLCWPH [D55W] | -0.106 ± 0.074
KHLIERYYHQLTEGCGNEACTNEFCASCPTFLRMDNNAAAIKALELYKINAKLCGPH [D55G] | -0.018 ± 0.061
KHLIERYYHQLTEGCGNEACTNEFCASCPTFLRMDNNAAAIKALELYKINAKLCPPH [D55P] | -0.027 ± 0.088
KHLIERYYHQLTEGCGNEACTNEFCASCPTFLRMDNNAAAIKALELYKINAKLCMPH [D55M] | 0.006 ± 0.088
KHLIERYYHQLTEGCGNEACTNEFCASCPTFLRMDNNAAAIKALELYKINAKLCVPH [D55V] | -0.012 ± 0.057

Variant | abundance fitness
KHLIERYYHQLTEGCGNEACTNEFCASCPTFLRMDNNAAAIKALELYKINAKLCEPH [D55E] | -0.017 ± 0.072
KHLIERYYHQLTEGCGNEACTNEFCASCPTFLRMDNNAAAIKALELYKINAKLCFPH [D55F] | -0.06 ± 0.097
KHLIERYYHQLTEGCGNEACTNEFCASCPTFLRMDNNAAAIKALELYKINAKLCRPH [D55R] | -0.118 ± 0.066
KHLIERYYHQLTEGCGNEACTNEFCASCPTFLRMDNNAAAIKALELYKINAKLCTPH [D55T] | -0.087 ± 0.085
KHLIERYYHQLTEGCGNEACTNEFCASCPTFLRMDNNAAAIKALELYKINAKLCQPH [D55Q] | 0.011 ± 0.08
KHLIERYYHQLTEGCGNEACTNEFCASCPTFLRMDNNAAAIKALELYKINAKLCLPH [D55L] | -0.027 ± 0.057
KHLIERYYHQLTEGCGNEACTNEFCASCPTFLRMDNNAAAIKALELYKINAKLCKPH [D55K] | 0.056 ± 0.084
KHLIERYYHQLTEGCGNEACTNEFCASCPTFLRMDNNAAAIKALELYKINAKLCNPH [D55N] | 0.017 ± 0.091
KHLIERYYHQLTEGCGNEACTNEFCASCPTFLRMDNNAAAIKALELYKINAKLCYPH [D55Y] | -0.159 ± 0.086
KHLIERYYHQLTEGCGNEACTNEFCASCPTFLRMDNNAAAIKALELYKINAKLCIPH [D55I] | -0.149 ± 0.098
KHLIERYYHQLTEGCGNEACTNEFCASCPTFLRMDNNAAAIKALELYKINAKLCSPH [D55S] | -0.059 ± 0.068
KHLIERYYHQLTEGCGNEACTNEFCASCPTFLRMDNNAAAIKALELYKINAKLCDTH [P56T] | 0.016 ± 0.11
KHLIERYYHQLTEGCGNEACTNEFCASCPTFLRMDNNAAAIKALELYKINAKLCDAH [P56A] | -0.035 ± 0.064
KHLIERYYHQLTEGCGNEACTNEFCASCPTFLRMDNNAAAIKALELYKINAKLCDDH [P56D] | -0.035 ± 0.11
KHLIERYYHQLTEGCGNEACTNEFCASCPTFLRMDNNAAAIKALELYKINAKLCDCH [P56C] | -0.041 ± 0.11
KHLIERYYHQLTEGCGNEACTNEFCASCPTFLRMDNNAAAIKALELYKINAKLCDHH [P56H] | -0.22 ± 0.11
KHLIERYYHQLTEGCGNEACTNEFCASCPTFLRMDNNAAAIKALELYKINAKLCDLH [P56L] | 0.044 ± 0.065
KHLIERYYHQLTEGCGNEACTNEFCASCPTFLRMDNNAAAIKALELYKINAKLCDSH [P56S] | -0.081 ± 0.082
KHLIERYYHQLTEGCGNEACTNEFCASCPTFLRMDNNAAAIKALELYKINAKLCDFH [P56F] | 0.098 ± 0.17
KHLIERYYHQLTEGCGNEACTNEFCASCPTFLRMDNNAAAIKALELYKINAKLCDRH [P56R] | 0.023 ± 0.065
KHLIERYYHQLTEGCGNEACTNEFCASCPTFLRMDNNAAAIKALELYKINAKLCDWH [P56W] | -0.038 ± 0.096
KHLIERYYHQLTEGCGNEACTNEFCASCPTFLRMDNNAAAIKALELYKINAKLCDQH [P56Q] | -0.068 ± 0.12
KHLIERYYHQLTEGCGNEACTNEFCASCPTFLRMDNNAAAIKALELYKINAKLCDGH [P56G] | 0.024 ± 0.069
